Assays:
[1] = target: Thogoto virus (THOV) polymerase, full-length heterotrimer of PB2, PB1 and PA (Thogoto virus (isolate SiAr 126)) (UniProt Q9YNA4); assay: cryo-EM structure; replicative elongation sample: 3.2 uM THOVPol, 30 °C for 6 h with 1.6 uM 3' vRNA, 1.6 uM 5' vRNA, 160 uM primer pppApG, 1.6 mM each ATP and CTP; 25 mM Tris-HCl pH 7.5, 300 mM NaCl, 2 mM MnCl2, 8 mM TCEP, 1% glycerol; asymmetric dimer of two heterotrimers (THOVPol-ELR with THOVPol-RER) beside a monomeric form
[2] = target: Thogoto virus (THOV) polymerase, full-length heterotrimer of PB2, PB1 and PA (Thogoto virus (isolate SiAr 126)) (UniProt Q9YNA4); assay: cryo-EM structure; transcriptional elongation sample: 3.2 uM THOVPol, 30 °C for 6 h with 2.5 uM 3' vRNA, 2.5 uM 5' vRNA, 160 uM capped primer m7GpppAmG, 1.6 mM each ATP and CTP; 25 mM Tris-HCl pH 7.5, 300 mM NaCl, 2 mM MnCl2, 8 mM TCEP, 1% glycerol; asymmetric dimer of two heterotrimers (THOVPol-EL with THOVPol-RE) beside monomeric forms
[3] = target: Thogoto virus (THOV) polymerase, full-length heterotrimer of PB2, PB1 and PA (Thogoto virus (isolate SiAr 126)) (UniProt Q9YNA4)

Thogoto virus (THOV) polymerase, full-length heterotrimer of PB2, PB1 and PA (from UniProt Q9YNA4 1-769; Q9YNA4 1-769; Q9YNA4 1-769) (complex)
stoichiometry N [1]: 2
stoichiometry N [2]: 2
reduction of mRNA and cRNA levels in the mini-replicon assay (RT-qPCR) with PB2-HA D547A/F549A (dimer interface 1) [3]: > 100 fold
reduction of mRNA and cRNA levels in the mini-replicon assay (RT-qPCR) with PB2-HA F134A/W138A (dimer interface 2) [3]: > 100 fold
reduction of mRNA and cRNA levels in the mini-replicon assay (RT-qPCR) with PB2-HA Q295A/D547A/I653A (dimer interfaces 1 and 3) [3]: > 100 fold

Reference: PMC11139864
